T1: Human OX40 (amino acids 29-170 of human OX40) (human, UniProt P43489 29-170)
T1 construct: range 29-170
T1 sequence (looked up): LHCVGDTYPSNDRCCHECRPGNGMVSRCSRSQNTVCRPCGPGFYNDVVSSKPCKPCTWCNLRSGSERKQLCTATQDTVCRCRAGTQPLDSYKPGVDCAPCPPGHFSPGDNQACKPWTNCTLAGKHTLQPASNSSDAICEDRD

T2: human OX40 on the surface of cells (HEK293 cells expressing human OX40, jurkat cells engineered to express … (human, UniProt P43489 29-277))
T2 construct: whole, on cells; also called huOX40
T2 sequence (looked up): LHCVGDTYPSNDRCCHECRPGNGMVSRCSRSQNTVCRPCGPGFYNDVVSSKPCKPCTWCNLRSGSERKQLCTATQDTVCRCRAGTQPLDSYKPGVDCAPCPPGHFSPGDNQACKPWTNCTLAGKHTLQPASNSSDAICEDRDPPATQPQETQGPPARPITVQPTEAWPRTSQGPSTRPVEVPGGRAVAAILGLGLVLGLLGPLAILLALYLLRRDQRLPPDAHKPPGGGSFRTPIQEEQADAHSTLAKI

T3: human OX40 (10481-H08H, Sino Biological), recombinant (human, UniProt P43489 29-216)
T3 construct: Bought protein
T3 sequence (looked up): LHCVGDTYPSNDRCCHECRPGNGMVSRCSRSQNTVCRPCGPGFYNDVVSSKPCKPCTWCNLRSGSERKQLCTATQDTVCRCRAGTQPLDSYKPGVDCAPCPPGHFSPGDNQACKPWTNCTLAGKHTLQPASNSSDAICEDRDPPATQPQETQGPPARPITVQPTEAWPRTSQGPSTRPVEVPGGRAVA


Legend:
[1] = molecular target: T4, CD28-His (amino acids 19-136 of human CD28) (human, UniProt P10747 19-136); assay: complex formation, SEC, crystal structure
T4 construct: Expressed in Expi293 cells, purified by HisTrap and SEC; also called Human CD28 Amino acids 19-136; not shown: His tag

[2] = molecular target: T1, Human OX40 (amino acids 29-170 of human …); assay: structure of the complex
[3] = molecular target: T5, human FcRn (Immunitrack, ITF01-200) (human, UniProt P55899 24-297; P61769 21-119); assay: SPR (Biacore 8K), FcRn captured on CAP chip, bispecific as analyte, pH 6.0, steady state
T5 construct: captured on a Series S Sensor Chip CAP; also called recombinant human FcRN

[4] = molecular target: T2, human OX40 on the surface of cells …; assay: flow cytometry on HEK293 cells expressing human OX40; anti-human IgG Fc PE secondary; MFI
[5] = molecular target: T6, human CD28 (CD28-3910H, Creative Bio Mart), recombinant (human, UniProt P10747 19-152); assay: SPR (Biacore 8K), bispecific captured by anti-human Fc, antigen as analyte, 1:1 model
T6 construct: Bought protein
T6 sequence (P10747 19-152 limits assumed): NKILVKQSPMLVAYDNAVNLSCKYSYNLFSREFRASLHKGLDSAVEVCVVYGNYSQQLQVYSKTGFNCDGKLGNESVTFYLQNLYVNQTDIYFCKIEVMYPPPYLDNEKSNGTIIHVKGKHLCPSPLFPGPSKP

[6] = molecular target: T7, cyno OX40 (internal production), recombinant (cynomolgus monkey); assay: as above
T7 construct: also called Cynomolgus Monkey OX40

[7] = molecular target: T3, human OX40 (10481-H08H, Sino …); assay: as above

binding result [1] | binding result [2] | Kd [3] | EC50 (read off the curve) [4] | Kd [5] | Kd [6] | Kd [7] | Binder
binds | – | – | – | – | – | – | L4 & L6 & L5 CD28 arm VHH (VHH-His) (VHH, Used as VHH-His in the crystal structure with CD28-His; also called L4, L6 & L5 CD28 VHH; not shown: His tag) VHH: DVQLVESGGGVVQPGGSLRLSCAASGFTFSSYYMSWVRQAPGKGLEWVSTINTDGDFTSYADSVKGRFTISRDNAKNTLYLQMNSLRPEDTALYYCARARGPYSRGSQGHDYRGQGTLVTVSS
– | binds | – | – | – | – | – | prototype OX40 arm Fab (Fab, V domains shown, Fab of the OX40 arm of the bispecific CD28-OX40 prototype; also called prototype arm) VH: EVQLVESGGVVVQPGGSLRLSCAASGFTFDDYTMHWVRQAPGKGLEWVSLISWDGGSTYYADSVKGRFTISRDNSKNSLYLQMNSLRTEDTAVYYCARDNLWGYLTYFDYWGQGTLVTVSS VL: QSVLTQPPSVSAAPGQKVTISCSGSSSNIGNNYVSWYQQLPGTAPKLLIYDNNKRPSGIPDRFSGSKSGTSATLGITGLQTGDEADYYCGTWDSSLTAYVFGGGTKLTVL
– | – | 990 nM | ~1000 pM | 3.3 nM | 15 nM | 8.1 nM | bispecific antibody L3 (anti-CD28 VHH x anti-OX40 Fab, human IgG1 Fc) (bispecific antibody, Three chains: anti-OX40 light chain (I), anti-OX40 heavy chain (II), anti-CD28 VHH-Fc chain (III); also called lead candidate L3) light: not shown heavy: not shown DVQLVESGGGVVQPGGSLRLSCAASGSFFSIDTMDWYRQAPGKQRELVTGVTSGGLTNYADSVKGRFTISIDNAKNTVYLQMNSLRPEDTALYYCSARIRTSGGGGWSTYWGQGTLVTVSSGGGGSDKTHTCPPCPAPEAAGGPSVFLFPPKPKDTLMISRTPEVTCVVVDVSHEDPEVKFNWYVDGVEVHNAKTKPREEQYNSTYRVVSVLTVLHQDWLNGKEYKCKVSNKALPAPIEKTISKAKGQPREPQVCTLPPSRDELTKNQVSLSCAVKGFYPSDIAVEWESNGQPENNYKTTPPVLDSDGSFFLVSKLTVDKSRWQQGNVFSCSVMHEALHNRFTQKSLSLSPG

Second part, the binder before the results:

Binder | binding result [1] | binding result [2] | Kd [3] | EC50 (read off the curve) [4] | Kd [5] | Kd [6] | Kd [7]
bispecific antibody L4 (anti-CD28 VHH x anti-OX40 Fab, human IgG1 Fc) (bispecific antibody, Three chains: anti-OX40 light chain (I), anti-OX40 heavy chain (II), anti-CD28 VHH-Fc chain (III); also called lead candidate L4) light: not shown heavy: not shown DVQLVESGGGVVQPGGSLRLSCAASGFTFSSYYMSWVRQAPGKGLEWVSTINTDGDFTSYADSVKGRFTISRDNAKNTLYLQMNSLRPEDTALYYCARARGPYSRGSQGHDYRGQGTLVTVSSGGGGSDKTHTCPPCPAPEAAGGPSVFLFPPKPKDTLMISRTPEVTCVVVDVSHEDPEVKFNWYVDGVEVHNAKTKPREEQYNSTYRVVSVLTVLHQDWLNGKEYKCKVSNKALPAPIEKTISKAKGQPREPQVCTLPPSRDELTKNQVSLSCAVKGFYPSDIAVEWESNGQPENNYKTTPPVLDSDGSFFLVSKLTVDKSRWQQGNVFSCSVMHEALHNRFTQKSLSLSPG | – | – | 574 nM | ~1000 pM | 11.9 nM | 3.7 nM | 4.1 nM
bispecific antibody L6 (anti-CD28 VHH x anti-OX40 Fab, human IgG1 Fc) (bispecific antibody, Three chains: anti-OX40 light chain (I), anti-OX40 heavy chain (II), anti-CD28 VHH-Fc chain (III); also called lead candidate L6) light: not shown heavy: not shown DVQLVESGGGVVQPGGSLRLSCAASGFTFSSYYMSWVRQAPGKGLEWVSTINTDGDFTSYADSVKGRFTISRDNAKNTLYLQMNSLRPEDTALYYCARARGPYSRGSQGHDYRGQGTLVTVSSGGGGSDKTHTCPPCPAPEAAGGPSVFLFPPKPKDTLMISRTPEVTCVVVDVSHEDPEVKFNWYVDGVEVHNAKTKPREEQYNSTYRVVSVLTVLHQDWLNGKEYKCKVSNKALPAPIEKTISKAKGQPREPQVCTLPPSRDELTKNQVSLSCAVKGFYPSDIAVEWESNGQPENNYKTTPPVLDSDGSFFLVSKLTVDKSRWQQGNVFSCSVMHEALHNRFTQKSLSLSPG | – | – | 745 nM | ~1000 pM | 11.3 nM | 20 nM | 8.1 nM
bispecific antibody L5 (anti-CD28 VHH x anti-OX40 Fab, human IgG1 Fc) (bispecific antibody, Three chains: anti-OX40 light chain (I), anti-OX40 heavy chain (II), anti-CD28 VHH-Fc chain (III); also called lead candidate L5) light: not shown heavy: not shown DVQLVESGGGVVQPGGSLRLSCAASGFTFSSYYMSWVRQAPGKGLEWVSTINTDGDFTSYADSVKGRFTISRDNAKNTLYLQMNSLRPEDTALYYCARARGPYSRGSQGHDYRGQGTLVTVSSGGGGSDKTHTCPPCPAPEAAGGPSVFLFPPKPKDTLMISRTPEVTCVVVDVSHEDPEVKFNWYVDGVEVHNAKTKPREEQYNSTYRVVSVLTVLHQDWLNGKEYKCKVSNKALPAPIEKTISKAKGQPREPQVCTLPPSRDELTKNQVSLSCAVKGFYPSDIAVEWESNGQPENNYKTTPPVLDSDGSFFLVSKLTVDKSRWQQGNVFSCSVMHEALHNRFTQKSLSLSPG | – | – | 714 nM | ~1000 pM | 9.99 nM | 3.3 nM | 6.1 nM
bispecific antibody L1 (anti-CD28 VHH x anti-OX40 Fab, human IgG1 Fc) (bispecific antibody, Three chains: anti-OX40 light chain (I), anti-OX40 heavy chain (II), anti-CD28 VHH-Fc chain (III); also called lead candidate L1) light: not shown heavy: not shown DVQLVESGGGVVQPGGSLRLSCAASGSFFSIDTMDWYRQAPGKQRELVTGVTSGGLTNYADSVKGRFTISIDNAKNTVYLQMNSLRPEDTALYYCSARIRTSGGGGWSTYWGQGTLVTVSSGGGGSDKTHTCPPCPAPEAAGGPSVFLFPPKPKDTLMISRTPEVTCVVVDVSHEDPEVKFNWYVDGVEVHNAKTKPREEQYNSTYRVVSVLTVLHQDWLNGKEYKCKVSNKALPAPIEKTISKAKGQPREPQVCTLPPSRDELTKNQVSLSCAVKGFYPSDIAVEWESNGQPENNYKTTPPVLDSDGSFFLVSKLTVDKSRWQQGNVFSCSVMHEALHNRFTQKSLSLSPG | – | – | 924 nM | ~700 pM | 3.6 nM | 2.9 nM | 4.3 nM
bispecific antibody L2 (anti-CD28 VHH x anti-OX40 Fab, human IgG1 Fc) (bispecific antibody, Three chains: anti-OX40 light chain (I), anti-OX40 heavy chain (II), anti-CD28 VHH-Fc chain (III); also called lead candidate L2) light: not shown heavy: not shown DVQLVESGGGVVQPGGSLRLSCAASGSFFSIDTMDWYRQAPGKQRELVTGVTSGGLTNYADSVKGRFTISIDNAKNTVYLQMNSLRPEDTALYYCSARIRTSGGGGWSTYWGQGTLVTVSSGGGGSDKTHTCPPCPAPEAAGGPSVFLFPPKPKDTLMISRTPEVTCVVVDVSHEDPEVKFNWYVDGVEVHNAKTKPREEQYNSTYRVVSVLTVLHQDWLNGKEYKCKVSNKALPAPIEKTISKAKGQPREPQVCTLPPSRDELTKNQVSLSCAVKGFYPSDIAVEWESNGQPENNYKTTPPVLDSDGSFFLVSKLTVDKSRWQQGNVFSCSVMHEALHNRFTQKSLSLSPG | – | – | 988 nM | ~1000 pM | 3.23 nM | 4 nM | 6.9 nM
